Experimental data: publication PMC4865318 (Molecular Biology of the Cell, 2016)

T1: MBP-UNC-15 (221–873) (C. elegans, UniProt P10567 221-872)
T1 sequence (looked up): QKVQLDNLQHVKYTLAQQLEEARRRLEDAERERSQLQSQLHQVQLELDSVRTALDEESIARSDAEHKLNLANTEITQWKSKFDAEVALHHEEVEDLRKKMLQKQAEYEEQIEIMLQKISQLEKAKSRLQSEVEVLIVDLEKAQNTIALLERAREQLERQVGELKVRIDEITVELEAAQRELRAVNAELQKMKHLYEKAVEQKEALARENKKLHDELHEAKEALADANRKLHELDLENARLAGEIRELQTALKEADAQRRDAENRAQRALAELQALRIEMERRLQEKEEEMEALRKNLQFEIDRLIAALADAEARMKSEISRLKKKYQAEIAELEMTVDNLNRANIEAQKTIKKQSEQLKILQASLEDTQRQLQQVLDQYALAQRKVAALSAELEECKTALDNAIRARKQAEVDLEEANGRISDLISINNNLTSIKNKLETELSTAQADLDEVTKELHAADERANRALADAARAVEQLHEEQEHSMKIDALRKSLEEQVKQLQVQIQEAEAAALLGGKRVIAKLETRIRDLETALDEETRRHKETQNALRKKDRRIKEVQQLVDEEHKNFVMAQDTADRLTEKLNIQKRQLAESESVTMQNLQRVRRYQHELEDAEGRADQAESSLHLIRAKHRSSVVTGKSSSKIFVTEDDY

T2: MBP-UNC-15 (294–376) (C. elegans, UniProt P10567 294-376)
T2 sequence (looked up): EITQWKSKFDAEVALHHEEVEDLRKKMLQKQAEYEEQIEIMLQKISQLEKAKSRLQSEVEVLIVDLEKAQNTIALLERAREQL


Columns and labels:
MBP-UNC-15 (221–873) = biological target: T1, MBP-UNC-15 (221–873); assay: far-Western
MBP-UNC-15 (294–376) = biological target: T2, MBP-UNC-15 (294–376); assay: BLI

Row | binding result (MBP-UNC-15 (221–873)) | Kd (MBP-UNC-15 (294–376)) [µM] | koff (MBP-UNC-15 (294–376)) [s⁻¹] | kon (MBP-UNC-15 (294–376)) [M⁻¹ s⁻¹] | Binder
1 | binds |  |  |  | GST-UNC-89 (1–151) (domain or fragment, C. elegans, UniProt O01761 1-151, looked up) MASRRQKQFDRKYSSYRKFTATEDVNYSTHSSRSSYRSESLTSRTDGRGRSTSSEIIAGSESRSYPVYIAIQDYTPDKEDVEAIPLEQGQIVEVLDKKNSVRWLVRTKARPPRSGWVPGSYFETPTEFYKQRRRTREIENVSLSDEQAALV
2 |  | 1.1 | 0.00015 | 143 | GST-UNC-89 (58–131) (domain or fragment, C. elegans, UniProt O01761 58-131, looked up) AGSESRSYPVYIAIQDYTPDKEDVEAIPLEQGQIVEVLDKKNSVRWLVRTKARPPRSGWVPGSYFETPTEFYKQ
3 | binds |  |  |  | GST-UNC-89 (1–500) (domain or fragment, C. elegans, UniProt O01761 1-500, looked up) MASRRQKQFDRKYSSYRKFTATEDVNYSTHSSRSSYRSESLTSRTDGRGRSTSSEIIAGSESRSYPVYIAIQDYTPDKEDVEAIPLEQGQIVEVLDKKNSVRWLVRTKARPPRSGWVPGSYFETPTEFYKQRRRTREIENVSLSDEQAALVKRDQVYHELLRSEEEFVSSLRTCVDDYIKVLDDPEVPEAVKKNREELTLNIPELYNFHANVMLKGLNYYSDDPGKVGQTFVRLEKDFESHVEFYKQYADTLKLLEEPEIKRFFEGLSAKNDAGASSFVDHVKEIADRMVQYQNYFKEFVKYSARAHGSSKSIQKALELVTTIPQRVHDLEFTNNLKQHPGDTGKLGRIIRHDAFQVWEGDEPPKLRYVFLFRNKIMFTEQDASTSPPSYTHYSSIRLDKYNIRQHTTDEDTIVLQPQEPGLPSFRIKPKDFETSEYVRKAWLRDIAEEQEKYAAERDAISMTATSEMTASSVDFDMNASDQQSEFSEWSGSRKSSLFPG
